This is an account of results in US20130183315A1 (GLENMARK PHARMACEUTICALS S A, published 2013).

Experiment [1] has as its target T1, recombinant human OX40-his protein (human, UniProt P43489 29-214).
T1 construct: Secretion driven by the native signal peptide of human TNFRSF4; also called recombinant histidine tagged human OX40 receptor extracellular domain; recombinant monovalent human OX40 receptor extracellular domain
T1 sequence: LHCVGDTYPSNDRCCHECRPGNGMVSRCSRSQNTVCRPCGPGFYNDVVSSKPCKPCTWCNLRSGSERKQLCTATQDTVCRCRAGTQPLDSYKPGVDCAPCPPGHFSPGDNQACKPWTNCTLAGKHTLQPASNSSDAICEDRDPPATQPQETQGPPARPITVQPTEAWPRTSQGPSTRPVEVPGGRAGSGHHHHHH
Put plainly: SPR, antibody captured on protein A, OX40-his as analyte. The procedure: (§1) Kinetic binding affinity constants (KD) were measured on protein-A captured antibody using recombinant histidine tagged human OX40 receptor extracellular domain as described in Example 1 as analyte. Measurements were conducted on a BIAcore 2000 (GE Healthcare—BIAcore, Uppsala, Sweden) at room temperature, and analyzed with the BiaEvaluation software (BIAcore; v4.1).
(§2) A CMS research grade sensor chip (GE Healthcare Europe GmbH, Glattbrugg, Switzerland; BR-1000-14) was activated by injecting 35 μl of a 1:1 N-hydroxysulfosuccinimide (NHS)/1-Ethyl-3-[3-dimethylaminopropyl]carbodiimide Hydrochloride (EDC) solution (v/v; 5 μl/min flow-rate; on flow paths 1 and 2). Protein-A (ref. P7837; Sigma-Aldrich Chemie GmbH, Buchs, Switzerland) was diluted to a final concentration of 50 μg/ml in acetate buffer pH 4.5 (GE, BR-1003-50; one pH unit below pI) and subsequently immobilized on the previously activated CMS sensor chip by injecting 35 μl on both flow path 1 and 2 (5 μl/min); this corresponded to approximately 1500 response units (RUs). The protein-A-CMS sensor chip was then deactivated by injecting 35 μl of ethanolamine solution (5 μl/min). Finally, two injections of 10 μl of glycine solution (GE, ref BR-1003-54; 10 mM; pH 1.5) were performed to release non-crosslinked protein-A molecules.
(§3) 10 μl of this diluted stock were subsequently injected on the flow-path 2 of the protein-A CMS chip (30 μl/min) to reach 200-250 RUs. Following this capture step, the recombinant histidine tagged human OX40 receptor extracellular domain was injected at different concentrations (50 nM to 0.4 μM) on the flow-path 1 and 2 (flow-path 1 being used as reference) at a 30 μl/min flow rate. After each binding event, surface was regenerated with glycine buffer pH 1.5 injected for 1 min (10 μl/min)

In experiment [2] the target is T1, recombinant human OX40-his protein. Put plainly: SPR (BIAcore): antibody captured on protein A chip, human OX40-his as analyte; analyte concentration not given. The procedure:
as §1, §2, §3
In general terms: In SPR one partner is held on a chip, and binding of the other changes the refractive index at the surface.

The target is the same in experiment [3]. Put plainly: SPR (BIAcore): antibody captured on protein A chip, human OX40-his as analyte. The procedure:
as §1, §2, §3

B1: VH7/VL9 (antibody, human IgG1, kappa, V domains shown)
VH: QVTLKESGPALVKPTQTLTLTCSFSGFSLSTSGMGVGWIRQPPGKALEWLAHIWWDDDKYYNTALKTRLTISKDTSKNQVVLTMTNMDPVDTATYYCARIDWDGFAYWGQGTLVTVSS
VL: EIVLTQSPATLSLSPGERATLSCRASSSVSYMHWYQQKPGQAPRPWIYATSNRATGIPARFSGSGSGTDYTLTISSLEPEDFAVYYCQQWSSNPWTFGQGTKVEIKR
notes: Humanized, IGHG1, kappa; also called humanized variant VH7/VL9
B1: in experiment [1], the Kd (usually the concentration at which binding is half-saturated) was found to be 70 nM; the off-rate constant (koff) – broadly, the first-order rate constant of dissociation – came to 0.00312 s⁻¹; the kon (commonly a measure of how fast the partners come together) is 44500 M⁻¹ s⁻¹.

B2: VH4/VL4 (antibody, human IgG1, kappa, V domains shown)
VH: QVTLKESGPALVKPTQTLTLTCSFSGFSLSTSGMGVSWIRQPPGKALEWIAHIWWDDDKYYSTSLKTRLTISKDTSKNQVVLTMTNMDPVDTATYYCARIDWDGFAYWGQGTLVTVSS
VL: EIVLTQSPATLSLSPGERATLSCRASSSVSYYMAWYQQKPGQAPRLLIYATSNRATGIPARFSGSGSGTDYTLTISSLEPEDFAVYYCQQWSSNPWTFGQGTKVEIKR
notes: Humanized, IGHG1, kappa
Take B2: the binding result in experiment [2] is recorded as “binds”.

B3: VH3/VL3 (antibody, human IgG1, kappa, V domains shown)
VH: QVTLKESGPALVKPTQTLTLTCTFSGFSLSTSGMGVSWIRQPPGKALEWIAHIWWDDDKYYSTSLKTRLTISKDTSKNQVVLTMTNMDPVDTATYYCARIDWDGFAYWGQGTLVTVSS
VL: EIVLTQSPATLSLSPGERATLSCRASSSVSYYLAWYQQKPGQAPRLLIYATSNRATGIPARFSGSGSGTDYTLTISSLEPEDFAVYYCQQWSSNPWTFGQGTKVEIKR
notes: Humanized, IGHG1, kappa
Regarding B3, in experiment [3], the binding result is reported as “no binding (tested: not printed)”.

B4: VH1/VL1 antibody (antibody, human IgG1, kappa, V domains shown)
VH: QVTLKESGPALVKPTQTLTLTCTFSGFSLSTSGMGVSWIRQPPGKALEWIARIWWDDDKYYSTSLKTRLTISKDTSKNQVVLTMTNMDPVDTATYYCARIDWDGFAYWGQGTLVTVSS
VL: EIVLTQSPATLSLSPGERATLSCRASSSVSYYLAWYQQKPGQAPRLLIYATSNRATGIPARFSGSGSGTDFTLTISSLEPEDFAVYYCQQWSSNPWTFGQGTKVEIKR
notes: Humanized, IGHG1, kappa; also called first humanized antibody
For the molecule B4, the binding result in experiment [3] is “no binding (tested: not printed)”.

B5: VH1/VL2 (antibody, human IgG1, kappa, V domains shown)
VH: QVTLKESGPALVKPTQTLTLTCTFSGFSLSTSGMGVSWIRQPPGKALEWIARIWWDDDKYYSTSLKTRLTISKDTSKNQVVLTMTNMDPVDTATYYCARIDWDGFAYWGQGTLVTVSS
VL: EIVLTQSPATLSLSPGERATLSCRASSSVSYYMAWYQQKPGQAPRLLIYATSNRATGIPARFSGSGSGTDFTLTISSLEPEDFAVYYCQQWSSNPWTFGQGTKVEIKR
notes: Humanized, IGHG1, kappa
For B5, the binding result in experiment [3] was “no binding (tested: not printed)”.

B6: VH1/VL3 (antibody, human IgG1, kappa, V domains shown)
VH: QVTLKESGPALVKPTQTLTLTCTFSGFSLSTSGMGVSWIRQPPGKALEWIARIWWDDDKYYSTSLKTRLTISKDTSKNQVVLTMTNMDPVDTATYYCARIDWDGFAYWGQGTLVTVSS
VL: EIVLTQSPATLSLSPGERATLSCRASSSVSYYLAWYQQKPGQAPRLLIYATSNRATGIPARFSGSGSGTDYTLTISSLEPEDFAVYYCQQWSSNPWTFGQGTKVEIKR
notes: Humanized, IGHG1, kappa
For B6, the binding result in experiment [3] is “no binding (tested: not printed)”.

B7: VH5/VL4 (antibody, human IgG1, kappa, V domains shown)
VH: QVTLKESGPALVKPTQTLTLTCSFSGFSLSTSGMGVSWIRQPPGKALEWIAHIWWDDDKYYNTALKTRLTISKDTSKNQVVLTMTNMDPVDTATYYCARIDWDGFAYWGQGTLVTVSS
VL: EIVLTQSPATLSLSPGERATLSCRASSSVSYYMAWYQQKPGQAPRLLIYATSNRATGIPARFSGSGSGTDYTLTISSLEPEDFAVYYCQQWSSNPWTFGQGTKVEIKR
notes: Humanized, IGHG1, kappa
In the case of B7, the binding result in experiment [2] is “binds”.

B8: VH3/VL1 (antibody, human IgG1, kappa, V domains shown)
VH: QVTLKESGPALVKPTQTLTLTCTFSGFSLSTSGMGVSWIRQPPGKALEWIAHIWWDDDKYYSTSLKTRLTISKDTSKNQVVLTMTNMDPVDTATYYCARIDWDGFAYWGQGTLVTVSS
VL: EIVLTQSPATLSLSPGERATLSCRASSSVSYYLAWYQQKPGQAPRLLIYATSNRATGIPARFSGSGSGTDFTLTISSLEPEDFAVYYCQQWSSNPWTFGQGTKVEIKR
notes: Humanized, IGHG1, kappa
Consider B8, for which, in experiment [3], the binding result is on record as “no binding (tested: not printed)”.

B9: VH7/VL11 (antibody, human IgG1, kappa, V domains shown)
VH: QVTLKESGPALVKPTQTLTLTCSFSGFSLSTSGMGVGWIRQPPGKALEWLAHIWWDDDKYYNTALKTRLTISKDTSKNQVVLTMTNMDPVDTATYYCARIDWDGFAYWGQGTLVTVSS
VL: EIVLTQSPATLSLSPGERATLSCRASSSVSYMHWYQQKPGQAPRLLIYATSNLASGIPARFSGSGSGTDYTLTISSLEPEDFAVYYCQQWSSNPWTFGQGTKVEIKR
notes: Humanized, IGHG1, kappa
In the case of B9, in experiment [2], the binding result is “binds”.

B10: VH7/VL8 (antibody, human IgG1, kappa, V domains shown)
VH: QVTLKESGPALVKPTQTLTLTCSFSGFSLSTSGMGVGWIRQPPGKALEWLAHIWWDDDKYYNTALKTRLTISKDTSKNQVVLTMTNMDPVDTATYYCARIDWDGFAYWGQGTLVTVSS
VL: EIVLTQSPATLSLSPGERATLSCRASSSVSYMHWYQQKPGQAPRLLIYATSNRATGIPARFSGSGSGTDYTLTISSLEPEDFAVYYCQQWSSNPWTFGQGTKVEIKR
notes: Humanized, IGHG1, kappa
Consider B10, for which the binding result in experiment [2] was “binds”.

B11: VH3/VL2 (antibody, human IgG1, kappa, V domains shown)
VH: QVTLKESGPALVKPTQTLTLTCTFSGFSLSTSGMGVSWIRQPPGKALEWIAHIWWDDDKYYSTSLKTRLTISKDTSKNQVVLTMTNMDPVDTATYYCARIDWDGFAYWGQGTLVTVSS
VL: EIVLTQSPATLSLSPGERATLSCRASSSVSYYMAWYQQKPGQAPRLLIYATSNRATGIPARFSGSGSGTDFTLTISSLEPEDFAVYYCQQWSSNPWTFGQGTKVEIKR
notes: Humanized, IGHG1, kappa
For B11, in experiment [3], the binding result is “no binding (tested: not printed)”.

B12: VH2/VL1 (antibody, human IgG1, kappa, V domains shown)
VH: QVTLKESGPALVKPTQTLTLTCSFSGFSLSTSGMGVSWIRQPPGKALEWIARIWWDDDKYYSTSLKTRLTISKDTSKNQVVLTMTNMDPVDTATYYCARIDWDGFAYWGQGTLVTVSS
VL: EIVLTQSPATLSLSPGERATLSCRASSSVSYYLAWYQQKPGQAPRLLIYATSNRATGIPARFSGSGSGTDFTLTISSLEPEDFAVYYCQQWSSNPWTFGQGTKVEIKR
notes: Humanized, IGHG1, kappa
As to B12, the binding result in experiment [3] is “no binding (tested: not printed)”.

B13: VH2/VL2 (antibody, human IgG1, kappa, V domains shown)
VH: QVTLKESGPALVKPTQTLTLTCSFSGFSLSTSGMGVSWIRQPPGKALEWIARIWWDDDKYYSTSLKTRLTISKDTSKNQVVLTMTNMDPVDTATYYCARIDWDGFAYWGQGTLVTVSS
VL: EIVLTQSPATLSLSPGERATLSCRASSSVSYYMAWYQQKPGQAPRLLIYATSNRATGIPARFSGSGSGTDFTLTISSLEPEDFAVYYCQQWSSNPWTFGQGTKVEIKR
notes: Humanized, IGHG1, kappa
For B13, the binding result in experiment [3] is “no binding (tested: not printed)”.

B14: VH7/VL7 (antibody, human IgG1, kappa, V domains shown)
VH: QVTLKESGPALVKPTQTLTLTCSFSGFSLSTSGMGVGWIRQPPGKALEWLAHIWWDDDKYYNTALKTRLTISKDTSKNQVVLTMTNMDPVDTATYYCARIDWDGFAYWGQGTLVTVSS
VL: EIVLTQSPATLSLSPGERATLSCRASSSVSYMAWYQQKPGQAPRLLIYATSNRATGIPARFSGSGSGTDYTLTISSLEPEDFAVYYCQQWSSNPWTFGQGTKVEIKR
notes: Humanized, IGHG1, kappa
On to B14, for which the binding result in experiment [2] was “binds”.

B15: VH2/VL3 (antibody, human IgG1, kappa, V domains shown)
VH: QVTLKESGPALVKPTQTLTLTCSFSGFSLSTSGMGVSWIRQPPGKALEWIARIWWDDDKYYSTSLKTRLTISKDTSKNQVVLTMTNMDPVDTATYYCARIDWDGFAYWGQGTLVTVSS
VL: EIVLTQSPATLSLSPGERATLSCRASSSVSYYLAWYQQKPGQAPRLLIYATSNRATGIPARFSGSGSGTDYTLTISSLEPEDFAVYYCQQWSSNPWTFGQGTKVEIKR
notes: Humanized, IGHG1, kappa
Turning to B15, the binding result in experiment [3] is given as “no binding (tested: not printed)”.
